According to publication PMC4154870, “The Cofilin Phosphatase Slingshot Homolog 1 (SSH1) Links NOD1 Signaling to Actin Remodeling” (PLoS Pathogens, 2014):

Target: T1, GFP-SSH1 (human, UniProt Q8WYL5 1-1049)
T1 construct: Slingshot homolog 1 (SSH1); also called EGFP-SSH1; WT SSH1; source: HeLa, transiently transfected, in fixed cells
T1 sequence (looked up): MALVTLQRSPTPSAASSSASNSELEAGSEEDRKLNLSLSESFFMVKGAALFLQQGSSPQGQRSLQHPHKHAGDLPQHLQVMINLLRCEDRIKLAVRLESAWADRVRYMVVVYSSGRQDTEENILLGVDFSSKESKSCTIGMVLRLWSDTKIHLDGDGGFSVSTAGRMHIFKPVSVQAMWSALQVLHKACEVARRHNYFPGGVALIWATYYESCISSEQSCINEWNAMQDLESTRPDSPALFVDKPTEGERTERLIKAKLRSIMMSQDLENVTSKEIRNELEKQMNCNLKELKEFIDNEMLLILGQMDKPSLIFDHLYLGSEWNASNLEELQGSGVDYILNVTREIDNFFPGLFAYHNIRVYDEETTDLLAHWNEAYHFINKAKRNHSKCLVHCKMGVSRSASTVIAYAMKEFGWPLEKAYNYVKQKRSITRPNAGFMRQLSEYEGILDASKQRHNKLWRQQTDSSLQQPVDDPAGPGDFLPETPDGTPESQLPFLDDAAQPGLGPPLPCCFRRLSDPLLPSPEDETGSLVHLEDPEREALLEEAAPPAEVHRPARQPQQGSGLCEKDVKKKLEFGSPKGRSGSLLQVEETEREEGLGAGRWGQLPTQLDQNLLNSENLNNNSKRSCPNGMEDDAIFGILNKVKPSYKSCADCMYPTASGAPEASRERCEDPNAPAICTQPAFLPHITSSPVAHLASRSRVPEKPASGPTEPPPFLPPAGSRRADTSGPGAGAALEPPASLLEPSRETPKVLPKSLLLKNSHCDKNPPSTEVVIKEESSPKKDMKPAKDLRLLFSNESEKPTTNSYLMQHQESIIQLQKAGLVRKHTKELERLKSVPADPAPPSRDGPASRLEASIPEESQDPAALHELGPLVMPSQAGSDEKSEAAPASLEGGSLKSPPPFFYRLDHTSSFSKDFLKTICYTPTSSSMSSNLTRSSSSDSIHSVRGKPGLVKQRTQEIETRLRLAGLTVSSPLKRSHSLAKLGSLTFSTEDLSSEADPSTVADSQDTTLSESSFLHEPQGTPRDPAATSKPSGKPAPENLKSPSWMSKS
Experiment: proximity ligation; in situ PLA (Duolink) in transiently transfected HeLa cells, fixed 24 h after transfection; rabbit GFP-specific and mouse Flag-specific primary antibodies; spot area per cell quantified by automated microscopy
Conditions: partners not purified

- area covered by PLA spots, against neighbouring GFP-negative cells: ~4 fold
B1: Flag-NOD1 (receptor, human, UniProt Q9Y239 1-953, looked up)
chain: MEEQGHSEMEIIPSESHPHIQLLKSNRELLVTHIRNTQCLVDNLLKNDYFSAEDAEIVCACPTQPDKVRKILDLVQSKGEEVSEFFLYLLQQLADAYVDLRPWLLEIGFSPSLLTQSKVVVNTDPVSRYTQQLRHHLGRDSKFVLCYAQKEELLLEEIYMDTIMELVGFSNESLGSLNSLACLLDHTTGILNEQGETIFILGDAGVGKSMLLQRLQSLWATGRLDAGVKFFFHFRCRMFSCFKESDRLCLQDLLFKHYCYPERDPEEVFAFLLRFPHVALFTFDGLDELHSDLDLSRVPDSSCPWEPAHPLVLLANLLSGKLLKGASKLLTARTGIEVPRQFLRKKVLLRGFSPSHLRAYARRMFPERALQDRLLSQLEANPNLCSLCSVPLFCWIIFRCFQHFRAAFEGSPQLPDCTMTLTDVFLLVTEVHLNRMQPSSLVQRNTRSPVETLHAGRDTLCSLGQVAHRGMEKSLFVFTQEEVQASGLQERDMQLGFLRALPELGPGGDQQSYEFFHLTLQAFFTAFFLVLDDRVGTQELLRFFQEWMPPAGAATTSCYPPFLPFQCLQGSGPAREDLFKNKDHFQFTNLFLCGLLSKAKQKLLRHLVPAAALRRKRKALWAHLFSSLRGYLKSLPRVQVESFNQVQAMPTFIWMLRCIYETQSQKVGQLAARGICANYLKLTYCNACSADCSALSFVLHHFPKRLALDLDNNNLNDYGVRELQPCFSRLTVLRLSVNQITDGGVKVLSEELTKYKIVTYLGLYNNQITDVGARYVTKILDECKGLTHLKLGKNKITSEGGKYLALAVKNSKSISEVGMWGNQVGDEGAKAFAEALRNHPSLTTLSLASNGISTEGGKSLARALQQNTSLEILWLTQNELNDEVAESLAEMLKVNQTLKHLWLIQNQITAKGTAQLADALQSNTGITEICLNGNLIKPEEAKVYEDEKRIICF
notes: NOD1; the Flag-tagged plasmid is not described in the methods; source: HeLa, transiently transfected, in fixed cells
